One block for each binder: values may come before it.
Columns and labels:
[1] = target: ACP-GluA1 (GluA1 tagged with the acyl carrier protein at its N-terminus) (mouse); experiment: single-molecule fluorescence tracking (TIRF), colocalization durations, simultaneous two colours; living HEK293 cells, plasma membrane, TARP2-mGFP with ATTO594-labelled ACP-GluA1 or ACP-GluA2 monomers and homodimers; lifetimes corrected for photobleaching
[2] = target: ACP-GluA2 (GluA2 tagged with the acyl carrier protein at its N-terminus), P23819; experiment: as above; conditions: remark: other sources report otherwise
Chain of ACP-GluA2 (GluA2 tagged with the acyl carrier protein at its N-terminus), P23819 (P23819 25-883): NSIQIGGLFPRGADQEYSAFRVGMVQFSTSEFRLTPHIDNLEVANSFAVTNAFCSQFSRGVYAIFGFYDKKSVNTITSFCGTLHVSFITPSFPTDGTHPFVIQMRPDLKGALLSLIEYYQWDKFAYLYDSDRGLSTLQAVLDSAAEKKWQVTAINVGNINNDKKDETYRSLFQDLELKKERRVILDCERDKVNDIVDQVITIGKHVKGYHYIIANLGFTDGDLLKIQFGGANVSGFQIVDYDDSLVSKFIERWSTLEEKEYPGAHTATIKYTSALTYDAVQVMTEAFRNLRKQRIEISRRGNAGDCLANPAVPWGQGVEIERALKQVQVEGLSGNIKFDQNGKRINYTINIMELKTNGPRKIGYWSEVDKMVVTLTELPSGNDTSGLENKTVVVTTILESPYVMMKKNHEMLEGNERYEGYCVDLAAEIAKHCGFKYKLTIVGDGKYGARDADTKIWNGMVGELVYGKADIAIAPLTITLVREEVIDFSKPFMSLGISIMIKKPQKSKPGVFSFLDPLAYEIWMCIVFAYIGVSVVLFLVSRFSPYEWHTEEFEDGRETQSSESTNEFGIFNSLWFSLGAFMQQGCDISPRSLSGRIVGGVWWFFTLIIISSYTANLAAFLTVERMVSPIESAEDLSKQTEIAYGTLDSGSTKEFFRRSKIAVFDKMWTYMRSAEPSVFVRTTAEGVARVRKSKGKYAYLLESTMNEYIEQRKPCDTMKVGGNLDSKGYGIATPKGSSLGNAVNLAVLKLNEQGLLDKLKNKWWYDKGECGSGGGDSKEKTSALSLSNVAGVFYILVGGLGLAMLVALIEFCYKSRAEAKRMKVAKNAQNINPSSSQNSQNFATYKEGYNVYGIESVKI

Chain of ACP-GluA1 (GluA1 tagged with the acyl carrier protein at its N-terminus) (mouse) (P23818 19-907): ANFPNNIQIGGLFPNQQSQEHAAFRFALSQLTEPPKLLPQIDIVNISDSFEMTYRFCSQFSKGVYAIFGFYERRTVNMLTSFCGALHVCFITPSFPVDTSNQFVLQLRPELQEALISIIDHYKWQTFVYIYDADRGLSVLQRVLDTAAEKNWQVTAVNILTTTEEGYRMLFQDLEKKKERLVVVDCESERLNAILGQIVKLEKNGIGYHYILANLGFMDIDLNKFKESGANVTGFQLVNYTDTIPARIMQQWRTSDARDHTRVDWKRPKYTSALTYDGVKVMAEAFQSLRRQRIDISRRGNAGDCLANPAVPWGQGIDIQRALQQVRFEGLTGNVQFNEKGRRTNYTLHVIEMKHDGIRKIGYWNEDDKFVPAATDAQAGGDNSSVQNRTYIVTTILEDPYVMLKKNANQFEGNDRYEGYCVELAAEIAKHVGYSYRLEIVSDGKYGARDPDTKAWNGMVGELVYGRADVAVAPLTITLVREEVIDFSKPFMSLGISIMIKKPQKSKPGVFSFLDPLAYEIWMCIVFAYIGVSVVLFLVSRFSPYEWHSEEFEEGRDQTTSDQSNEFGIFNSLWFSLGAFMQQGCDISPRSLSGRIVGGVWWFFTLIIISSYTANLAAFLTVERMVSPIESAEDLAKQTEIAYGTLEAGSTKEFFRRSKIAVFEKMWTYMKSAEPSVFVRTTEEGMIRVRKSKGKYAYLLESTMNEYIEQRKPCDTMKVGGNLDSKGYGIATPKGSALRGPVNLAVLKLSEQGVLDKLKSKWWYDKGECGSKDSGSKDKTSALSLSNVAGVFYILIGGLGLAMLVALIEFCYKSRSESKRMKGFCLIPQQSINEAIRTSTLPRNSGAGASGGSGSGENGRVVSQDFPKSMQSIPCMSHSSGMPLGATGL

- lifetime of binding (to GluA1 monomers and to GluA1 homodimers) [1]: 200 ms
B1: TARP2-mGFP (transmembrane AMPA receptor regulatory protein 2 with mGFP fused to its C-terminus) (natural protein)
chain: MGLFDRGVQMLLTTVGAFAAFSLMTIAVGTDYWLYSRGVCKTKSVSENETSKKNEEVMTHSGLWRTCCLEGNFKGLCKQIDHFPEDADYEADTAEYFLRAVRASSIFPILSVILLFMGGLCIAASEFYKTRHNIILSAGIFFVSAGLSNIIGIIVYISANAGDPSKSDSKKNSYSYGWSFYFGALSFIIAEMVGVLAVHMFIDRHKQLRATARATDYLQASAITRIPSYRYRYQRRSRSSSRSTEPSHSRDASPVGVKGFNTLPSTEISMYTLSRDPLKAATTPTATYNSDRDNSFLQVHNCIQKDSKDSLHANTANRRTTPV

- lifetime of binding (to GluA2 monomers and to GluA2 homodimers) [2]: 200 ms
B2: TARP2-mGFP (transmembrane AMPA receptor regulatory protein 2 with mGFP fused to its C-terminus), O88602 1-323 (natural protein)
chain: B1 chain
modifications: here or on the partner: ATTO594 on the ACP tag (ATTO594-Coenzyme A with ACP-synthase)

— paper PMC6868016
